Holding throughout (test): EMSA; 6 mM MgCl2; EMSA: 10 mM Tris-HCl pH 7.5, 6 mM MgCl2, 100 mM NaCl, 10% glycerol, 0.1% NP-40; 10 nM DNA, 0-1000 nM protein, 1 h at room temperature; 6% native PAGE
Holding throughout (conditions): protein: recombinant; tags: 6xHis-SUMO, cleaved off; label: 5'-6-FAM on primer; 22 bp; 5' overhang 18 nt on template; 5' overhang 3 nt (TTT) on primer

In series [1] the target is T1, DNA polymerase theta polymerase domain (PolQM1), WT (Homo sapiens, UniProt O75417 1792-2590).
T1 sequence: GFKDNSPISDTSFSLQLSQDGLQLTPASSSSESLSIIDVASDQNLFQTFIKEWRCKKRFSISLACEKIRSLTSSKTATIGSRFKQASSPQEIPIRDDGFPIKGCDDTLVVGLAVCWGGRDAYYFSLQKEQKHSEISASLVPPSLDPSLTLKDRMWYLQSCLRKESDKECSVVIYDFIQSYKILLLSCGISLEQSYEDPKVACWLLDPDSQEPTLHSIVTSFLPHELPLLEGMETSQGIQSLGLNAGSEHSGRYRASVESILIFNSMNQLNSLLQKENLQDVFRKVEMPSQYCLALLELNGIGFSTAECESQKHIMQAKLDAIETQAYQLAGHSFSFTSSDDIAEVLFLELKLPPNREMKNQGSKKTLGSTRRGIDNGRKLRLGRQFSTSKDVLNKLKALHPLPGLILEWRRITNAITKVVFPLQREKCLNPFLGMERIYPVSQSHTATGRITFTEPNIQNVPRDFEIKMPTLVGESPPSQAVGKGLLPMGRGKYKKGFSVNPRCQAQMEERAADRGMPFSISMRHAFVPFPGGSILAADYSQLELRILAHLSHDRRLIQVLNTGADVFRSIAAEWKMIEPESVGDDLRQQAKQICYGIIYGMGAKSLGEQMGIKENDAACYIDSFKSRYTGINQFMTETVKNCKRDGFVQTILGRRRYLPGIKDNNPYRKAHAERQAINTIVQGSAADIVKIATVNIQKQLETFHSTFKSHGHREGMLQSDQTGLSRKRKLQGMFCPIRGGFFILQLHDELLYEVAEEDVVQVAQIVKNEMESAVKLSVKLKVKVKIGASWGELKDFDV

The target in series [2] is T2, DNA polymerase theta polymerase domain (PolQM1), E2406K (Homo sapiens, UniProt O75417 1792-2590, E2406K).
T2 sequence: T1 sequence with E615K

The target of series [3] is T3, DNA polymerase theta polymerase domain (PolQM1), T2161I (Homo sapiens, UniProt O75417 1792-2590, T2161I).
T3 sequence: T1 sequence with T370I

Series [4] addresses T4, DNA polymerase theta polymerase domain (PolQM1), L2538R (Homo sapiens, UniProt O75417 1792-2590, L2538R).
T4 sequence: T1 sequence with L747R

Among the data in publication PMC11080051, “Melanoma-Derived DNA Polymerase Theta Variants Exhibit Altered DNA Polymerase Activity” are Kd values, retold here.

Where a chain is given by its changes, count along the chain named.

B1: 25/40 primer-template duplex (CG template) (dsDNA)
DNA 1: TTTGCCTTGACCATGTAACAGAGAG
DNA 2: TCTCTTCTCTCACTCACGCTCTCTGTTACATGGTCAAGGC
For the molecule B1, the Kd in series [1] came out at 18 ± 3 nM; in series [2] it was 14 ± 3 nM; in series [3] it was 13 ± 3 nM; in series [4] it was 18 ± 4 nM.
